One test deals with T1, HLA-A*03:01 (human).
T1 construct: the construct is not described
Put plainly: peptide-MHC binding, competitive fluorescence polarization assay.

A further test deals with T2, HLA-A*11:01 (human).
T2 construct: the construct is not described
The test is described as above.

Another test deals with T3, HLA-B*07:02 (human).
T3 construct: the construct is not described
Described as above.

Test [1] addresses T4, HLA-B*07:02 expressed on monoallelic K562 RAS TMG cells (human).
T4 construct: also called K562-B*07:02
Put plainly: HLA class I immunoprecipitation, peptide elution and tandem MS/MS from monoallelic K562 RAS TMG cells (FIG. 8J).

Test [2] has as its target T5, HLA-A*11:01 expressed on monoallelic K562 RAS TMG cells (human).
T5 construct: also called K562-A*11:01
Put plainly: HLA class I immunoprecipitation, peptide elution and tandem MS/MS from monoallelic K562 RAS TMG cells (FIG. 8I).

Test [3] concerns the target T6, HLA-A*03:01 expressed on monoallelic K562 RAS TMG cells (human).
T6 construct: also called K562-A*03:01
As to the kind of experiment: HLA class I immunoprecipitation, peptide elution and tandem MS/MS from monoallelic K562 RAS TMG cells (FIG. 8D).

The target in test [4] is T5, HLA-A*11:01 expressed on monoallelic …. Put plainly: HLA class I immunoprecipitation, peptide elution and tandem MS/MS from monoallelic K562 RAS TMG cells (FIG. 8F).
Test [5] concerns the target T6, HLA-A*03:01 expressed on monoallelic …. Put plainly: HLA class I immunoprecipitation, peptide elution and tandem MS/MS from monoallelic K562 RAS TMG cells (FIG. 8A).
Test [6] has as its target T5, HLA-A*11:01 expressed on monoallelic …. As to the kind of experiment: HLA class I immunoprecipitation, peptide elution and tandem MS/MS from monoallelic K562 RAS TMG cells (FIG. 8G).
Test [7] has as its target T6, HLA-A*03:01 expressed on monoallelic …. Put plainly: HLA class I immunoprecipitation, peptide elution and tandem MS/MS from monoallelic K562 RAS TMG cells (FIG. 8C).
Test [8] concerns the target T5, HLA-A*11:01 expressed on monoallelic …. Put plainly: HLA class I immunoprecipitation, peptide elution and tandem MS/MS from monoallelic K562 RAS TMG cells (FIG. 8E).

The record followed here is patent US20220088190A1 (University of Pennsylvania, published 2022).

B1: mRAS peptide VVV_R (RAS G12R), VVVGARGVGK (peptide)
peptide: VVVGARGVGK
notes: 10-mer mutant RAS short peptide; also called R-10
On to B1, for which the binding result with HLA-A*03:01 and with HLA-A*11:01 was “binds” each time.

B2: mRAS peptide VV_C (RAS G12C), VVGACGVGK (peptide)
peptide: VVGACGVGK
notes: 9-mer mutant RAS short peptide; also called C-9
For B2, the binding result with HLA-A*11:01 is on record as “binds”.

B3: mRAS peptide GA_R (RAS G12R), GARGVGKSAL (peptide)
peptide: GARGVGKSAL
notes: 10-mer mutant RAS short peptide; also called R-10 (B*07:02 panel)
As to B3, the binding result (in the test with HLA-B*07:02; in test [1]) was “binds” throughout.

B4: mRAS peptide VV_R (RAS G12R), VVGARGVGK (peptide)
peptide: VVGARGVGK
notes: 9-mer mutant RAS short peptide; also called R-9
B4: the binding result (in the test with HLA-A*11:01; in test [2]; in [3]) was “binds” each time.

B5: mRAS peptide VVV_D (RAS G12D), VVVGADGVGK (peptide)
peptide: VVVGADGVGK
notes: 10-mer mutant RAS short peptide; also called D-10
Consider B5, for which the binding result (in test [4]; with HLA-A*11:01; in test [5]) was “binds” in each case.

B6: mRAS peptide VVV_V (RAS G12V), VVVGAVGVGK (peptide)
peptide: VVVGAVGVGK
notes: 10-mer mutant RAS short peptide; also called V-10
In the case of B6, the binding result (with HLA-A*03:01; in the test with HLA-A*11:01; in test [6]; in test [7]) was “binds” each time.

B7: mRAS peptide VV_D (RAS G12D), VVGADGVGK (peptide)
peptide: VVGADGVGK
notes: 9-mer mutant RAS short peptide; also called D-9
Turning to B7, the binding result (with HLA-A*11:01; in test [8]) was “binds” throughout.
